For orientation: Kd means the concentration at which binding is half-saturated.

Results on 58 variants are retold here after the FLAb antibody collection (doi:10.7554/elife.23156).

B1: scFv; the commonest letter at each place (parent)
chain 1: EVKLDETGGGLVQPGRPMKLSCVASGFTFSDYWMNWVRQSPEKGLEWVAQIRNKPYNYETYYSDSVKGRFTISRDDSKSSVYLQMNNLRVEDMGIYYCTGSYYGMDYWGQGTSVTVS
chain 2: DVVMTQTPLSLPVSLGDQASISCRSSQSLVHSNGNTYLRWYLQKPGQSPKVLIYKVSNRFSGVPDRFSGSGSGTDFTLKISRVEAEDLGVYFCSQSTHVPWTFGGGTKLEIK

In the data set “fluorescein” the parent is B1. In words: Kd (Tite-Seq). To be noted: with fluorescein; format: scFv 4-4-20, heavy + light.
Variants of B1 are the subject of data set [1]. In words: yeast surface expression (ratio to wild type); higher = more expressed. To be noted: format: scFv 4-4-20, heavy + light.

With chain 1 S101C, the Kd with fluorescein is no less than 10 µM. Also, the yeast surface expression in data set [1] amounted to 0.832.
The like results for chain 1 S101G M105E D106R were, in that order, no less than 10 µM and 0.604.
Take chain 1 F29Y M34Q V37M: the Kd in the data set with fluorescein is 4.37 µM. The yeast surface expression in data set [1] was determined as 0.485.
For chain 1 Y102G Y103K G109K the same measures were no less than 10 µM and 0.425.
The like results for chain 1 D106M Y107C were, in that order, no less than 10 µM and 0.228.
For chain 1 S30P W33E the same measures were no less than 10 µM and 1.01.
Turning to chain 1 S30P W33P, in the data set with fluorescein, the Kd is no less than 10 µM. Also, the yeast surface expression in data set [1] came out at 0.628.
For chain 1 Y102V Y107D the same measures were no less than 10 µM and 0.452.
Take chain 1 D106L G109H: in the data set with fluorescein, the Kd is no less than 10 µM. Besides, in data set [1], the yeast surface expression was 0.0932.
For chain 1 F29P S30Y the same measures were 0.0221 µM and 0.751.
For chain 1 T28I F29L the same measures were 0.0318 µM and 0.851.
The like results for chain 1 Y103W W108S were, in that order, no less than 10 µM and 0.526.
On to chain 1 Y32T W36R, for which the Kd with fluorescein is no less than 10 µM. Besides, the yeast surface expression in data set [1] was determined as 0.193.
For chain 1 T28M M34C the same measures were 0.0353 µM and 0.719.
As to chain 1 T28A Y32H, the Kd in the data set with fluorescein was 0.0318 µM. The yeast surface expression in data set [1] is 0.717.
The like results for chain 1 M34I N35Y V37Y were, in that order, no less than 10 µM and 0.45.
With chain 1 Y102R M105A, in the data set with fluorescein, the Kd was found to be 8.56 µM. In addition, in data set [1], the yeast surface expression is 1.1.
The like results for chain 1 S101N Y103L were, in that order, no less than 10 µM and 0.964.
For chain 1 T28D F29Y the same measures were 0.00871 µM and 0.975.
For chain 1 T28L W33S the same measures were no less than 10 µM and 0.867.
For chain 1 G100F Y107I, the Kd in the data set with fluorescein is no less than 10 µM. The yeast surface expression in data set [1] was found to be 0.947.
In the case of chain 1 W108Q G109E, in the data set with fluorescein, the Kd is no less than 10 µM. For the same variant, in data set [1], the yeast surface expression is 0.459.
The like results for chain 1 Y102Q Y103T were, in that order, no less than 10 µM and 1.05.
Take chain 1 F29I S30R D31E: in the data set with fluorescein, the Kd stood at 0.228 µM. Further, in data set [1], the yeast surface expression was 0.688.
Take chain 1 S30C D31F: the Kd in the data set with fluorescein was found to be 5.96 µM. In data set [1], the yeast surface expression was found to be 0.592.
The like results for chain 1 G100T M105W were, in that order, no less than 10 µM and 0.733.
The like results for chain 1 S30N W33D were, in that order, no less than 10 µM and 1.05.
The like results for chain 1 D31K Y32G were, in that order, 0.0729 µM and 0.879.
As for chain 1 Y102F G109N, in the data set with fluorescein, the Kd was no less than 10 µM. Besides, the yeast surface expression in data set [1] is 0.27.
For chain 1 G104T the same measures were no less than 10 µM and 0.599.
The like results for chain 1 G104E were, in that order, no less than 10 µM and 1.04.
For chain 1 T28F F29W V37K the same measures were no less than 10 µM and 0.532.
For the variant chain 1 Y102R Y107N, in the data set with fluorescein, the Kd is no less than 10 µM. Further, the yeast surface expression in data set [1] is 0.81.
For chain 1 S101L G104I the same measures were no less than 10 µM and 0.452.
For chain 1 T28F F29R the same measures were no less than 10 µM and 0.797.
The like results for chain 1 S30V W33A were, in that order, no less than 10 µM and 0.748.
Take chain 1 Y32H N35Q: the Kd in the data set with fluorescein was no less than 10 µM. Further, the yeast surface expression in data set [1] was 0.811.
Take chain 1 Y102Q G104H: in the data set with fluorescein, the Kd was no less than 10 µM. Moreover, in data set [1], the yeast surface expression came to 0.672.
Consider chain 1 F29A M34K V37T, for which the Kd with fluorescein was no less than 10 µM. Besides, in data set [1], the yeast surface expression came to 0.628.
As for chain 1 N35C W36F, in the data set with fluorescein, the Kd was no less than 10 µM. Besides, the yeast surface expression in data set [1] was found to be 0.644.
chain 1 D31C W33G: the Kd with fluorescein is no less than 10 µM. In addition, the yeast surface expression in data set [1] worked out at 0.385.
The like results for chain 1 V37H were, in that order, 7.72 µM and 0.831.
As to chain 1 V37Q, the Kd in the data set with fluorescein was found to be 0.00194 µM. Also, in data set [1], the yeast surface expression was 0.731.
For chain 1 Y103C G109A, in the data set with fluorescein, the Kd was no less than 10 µM. Further, the yeast surface expression in data set [1] stood at 0.397.
As to chain 1 F29N S30K, the Kd in the data set with fluorescein was determined as 0.228 µM. Besides, the yeast surface expression in data set [1] is 1.13.
chain 1 S101M Y107H: the Kd in the data set with fluorescein was no less than 10 µM. For the same variant, the yeast surface expression in data set [1] was 0.483.
For chain 1 Y32K W33T the same measures were no less than 10 µM and 0.694.
The like results for chain 1 M34K W36F were, in that order, no less than 10 µM and 1.23.
For chain 1 M34K W36C the same measures were no less than 10 µM and 0.509.
On to chain 1 Y102C G109A, for which the Kd with fluorescein came out at 2.47 µM. In addition, in data set [1], the yeast surface expression came out at 0.619.
For chain 1 S30C M34V the same measures were 0.00827 µM and 0.65.
The like results for chain 1 S101D Y103K were, in that order, no less than 10 µM and 0.764.
The like results for chain 1 F29D V37A were, in that order, no less than 10 µM and 0.907.
In the case of chain 1 F29D W33Y, the Kd in the data set with fluorescein was no less than 10 µM. Further, in data set [1], the yeast surface expression was 0.766.
For chain 1 W36P the same measures were no less than 10 µM and 0.871.
The like results for chain 1 W36S were, in that order, no less than 10 µM and 0.813.
The like results for chain 1 W36I were, in that order, 1.33 µM and 0.756.
Take chain 1 W36V: in the data set with fluorescein, the Kd was no less than 10 µM. Further, in data set [1], the yeast surface expression was 0.715.
